Reference: patent US20170362330A1

Legend:
human CD46 (human) [1] = target: human CD46 (human) (UniProt P15529); assay: FACS on Du-145 cells, 4 °C overnight, MFI curve fit
[2] = target: human CD46 (human), P15529; assay: cell-based or functional assay
human CD46 (human) [3] = target: human CD46 (human) (UniProt P15529); assay: FACS on CHO cells transfected with human CD46, 4 °C overnight, MFI curve fit
human CD46 (human) [4] = target: human CD46 (human) (UniProt P15529); assay: FACS on CHO-huCD46 cells, 4 C overnight, MFI against antibody concentration

Chain of human CD46 (human) (P15529 35-392): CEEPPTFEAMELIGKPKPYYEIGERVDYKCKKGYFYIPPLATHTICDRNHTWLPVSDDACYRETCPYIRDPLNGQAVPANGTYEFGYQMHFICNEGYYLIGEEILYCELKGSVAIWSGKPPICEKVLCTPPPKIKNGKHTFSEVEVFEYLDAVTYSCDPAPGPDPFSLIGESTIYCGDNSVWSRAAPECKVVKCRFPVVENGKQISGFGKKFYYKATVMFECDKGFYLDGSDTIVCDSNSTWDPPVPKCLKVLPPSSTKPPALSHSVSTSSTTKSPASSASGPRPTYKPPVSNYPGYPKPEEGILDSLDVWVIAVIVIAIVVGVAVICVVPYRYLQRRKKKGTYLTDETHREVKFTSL
Chain of human CD46 (human), P15529 (P15529 35-392): as above

| Binder | Kd (human CD46 (human) [1]) | EC50 of cell killing, LNCaP C4-2B cells with prior exposure to abiraterone (CD46 upregulated), 96 hours [2] | EC50 of cell killing, LNCaP C4-2B cells without prior exposure to abiraterone, 96 hours [2] | cytotoxic activity on H660 cells in vitro (Calcein AM viability, 7 days) [2] | fold drop of killing EC50 on H660 cells after enzalutamide treatment [2] | Kd (human CD46 (human) [3]) | EC50 (read off the curve) (human CD46 (human) [4]) |
| --- | --- | --- | --- | --- | --- | --- | --- |
| YS12 (antibody, V domains shown) VH: QVQLVESGGGVVQPGRSLRLSCAASGFTFSTYGMHWVRQAPGKGLEWLSFISYDGDEKYYADSVKGRFTISRDNSKNTLYLQMNSLRAEDTAVYWCAKASGYGMGILDYWGQGTLVTVSS VL: SSELTQDPAVSVALGQTVRITCQGDSLRSYYVSWFQQKPGQAPVFVMYGQNNRPSGISERFSGSSSGNTASLIITGAQAEDEADYYCHSRDSSGTHLRVFGGGTKLTVL | 43 pM |  |  |  |  |  |  |
| YS5-mcvcpab-MMAF (protein, here or on the partner: monomethyl auristatin F (MMAF) conjugated via the MC-vc-PAB linker, on average about 3 drugs per antibody molecule; attachment residues not stated) VH: QVQLVQSGGGVVQPGRSLRLACAASGLTVNNYAMHWVRQAPGKGLEWVAVISYDGNNKYYADSVKGRFTISRDNSKNTLYLQMNSLRAEDTAVYYCAKGGGYFDLWGRGTLVTVSS VL: QSVLTQPPSVSGAPGQRVTISCTGSSSNIGAGYDVHWYQQLPGTAPKLLIYGNNNRPSGVPDRFSGSKSGTSASLAITGLQAEDEADYYCSSYTSGTWLFGGGTKLTVL |  | 21 pM | 169 pM | < 1 nM | 4 to 5 fold |  |  |
| YS5 (antibody, V domains shown) VH: QVQLVQSGGGVVQPGRSLRLACAASGLTVNNYAMHWVRQAPGKGLEWVAVISYDGNNKYYADSVKGRFTISRDNSKNTLYLQMNSLRAEDTAVYYCAKGGGYFDLWGRGTLVTVSS VL: QSVLTQPPSVSGAPGQRVTISCTGSSSNIGAGYDVHWYQQLPGTAPKLLIYGNNNRPSGVPDRFSGSKSGTSASLAITGLQAEDEADYYCSSYTSGTWLFGGGTKLTVL | 2190 pM |  |  |  |  | 867 pM | 1000 pM |
